Experimental data reported in patent US20260125454A1 (SHANGHAI JUNSHI BIOSCIENCES, published 2026).

T1: Biotin-huCGRPaSA (human, not fully specified; biotin (position not given))
T1 construct: exact construct ('aSA') not explained; also called Biotin CGRPaSA; full-length (1-37) CGRP
T1 peptide: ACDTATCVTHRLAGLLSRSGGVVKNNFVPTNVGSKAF


Biological target: T1, Biotin-huCGRPaSA
Assay: ELISA, supernatant; relative to chimeric C245
Procedure, shortened: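 Antibodies, including reference chimeric C245, titrated 2.5-fold from 1000 ng/mL and incubated 60 min at 37°C on wells coated with 1.0 μg/mL biotin-CGRPaSA and blocked with 2% BSA. Bound IgG detected with HRP anti-human Fc antibody and TMB, acid-stopped, absorbance 450/620 nm.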

Row | Binder | Relative binding activity, % [%]
1 | hu213 (antibody, V domains shown, 3H10 HC-2/1F5 LC1-1) VH: QVQLVQSGAEVKKPGASVKVSCKASGYTFTDYNMHWVRQAPGQGLEWMGYIYPYNGHTVYNQKFRNRVTLTVDTSSSTAYMELRSLRSDDTAVYYCAREGLGGYWGQGTLVTVSS VL: EIVLTQSPATLSLSPGERATLSCKASQNIDFDGYAYMNWYQQKPGQAPRVLIYSVFNLESGIPARFSGSGSGTDFTLTISSLEPEDFAVYYCQQSHEVPYTFGQGTKLEIK | 38
2 | hu3 (antibody, V domains shown, 1B2 HC-1/1A2 LC2-3) VH: QVQLVQSGAEVKKPGASVKVSCKASGYTFTDYNMHWVRQAPGQGLEWMGYIFPYNGVAVYNRKFRSRVTLTIDTSSSTAYMELRSLRSDDTAVYYCAREGLGGYWGQGTLVTVSS VL: EIVLTQSPATLSLSPGERATLSCKASQNIDYDGYAYLNWYQQKPGQAPRVLIYSVFNLESGIPARFSGSGSGTDFTLTISSLEPEDFAVYYCQQSNEFPYTFGQGTKLEIK | 41
3 | hu5 (antibody, V domains shown, 1B2 HC-1/1F5 LC1-1) VH: QVQLVQSGAEVKKPGASVKVSCKASGYTFTDYNMHWVRQAPGQGLEWMGYIFPYNGVAVYNRKFRSRVTLTIDTSSSTAYMELRSLRSDDTAVYYCAREGLGGYWGQGTLVTVSS VL: EIVLTQSPATLSLSPGERATLSCKASQNIDFDGYAYMNWYQQKPGQAPRVLIYSVFNLESGIPARFSGSGSGTDFTLTISSLEPEDFAVYYCQQSHEVPYTFGQGTKLEIK | 88
4 | hu6 (antibody, V domains shown, 1B2 HC-1/1F5 LC1-2) VH: QVQLVQSGAEVKKPGASVKVSCKASGYTFTDYNMHWVRQAPGQGLEWMGYIFPYNGVAVYNRKFRSRVTLTIDTSSSTAYMELRSLRSDDTAVYYCAREGLGGYWGQGTLVTVSS VL: EIVLTQSPATLSLSPGERATLSCKASQNIDFDGYAYMNWYQHKPGQAPRVLIYSVFNLESGIPARFSGSGSGTDFTLTISSLEPEDFAVYYCQQSHEVPYTFGQGTKLEIK | 93
5 | hu16 (antibody, V domains shown, 1B2 HC-2/1A2 LC2-3) VH: QVQLVQSGAEVKKPGASVKVSCKASGYTFTDYNMHWVRQAPGQRLEWMGYIFPYNGVAVYNRKFRSRVTLTVDTSSSTAYMELSSLRSEDTAVYYCAREGLGGYWGQGTLVTVSS VL: EIVLTQSPATLSLSPGERATLSCKASQNIDYDGYAYLNWYQQKPGQAPRVLIYSVFNLESGIPARFSGSGSGTDFTLTISSLEPEDFAVYYCQQSNEFPYTFGQGTKLEIK | 39
6 | hu18 (antibody, V domains shown, 1B2 HC-2/1F5 LC1-1) VH: QVQLVQSGAEVKKPGASVKVSCKASGYTFTDYNMHWVRQAPGQRLEWMGYIFPYNGVAVYNRKFRSRVTLTVDTSSSTAYMELSSLRSEDTAVYYCAREGLGGYWGQGTLVTVSS VL: EIVLTQSPATLSLSPGERATLSCKASQNIDFDGYAYMNWYQQKPGQAPRVLIYSVFNLESGIPARFSGSGSGTDFTLTISSLEPEDFAVYYCQQSHEVPYTFGQGTKLEIK | 67
7 | hu19 (antibody, V domains shown, 1B2 HC-2/1F5 LC1-2) VH: QVQLVQSGAEVKKPGASVKVSCKASGYTFTDYNMHWVRQAPGQRLEWMGYIFPYNGVAVYNRKFRSRVTLTVDTSSSTAYMELSSLRSEDTAVYYCAREGLGGYWGQGTLVTVSS VL: EIVLTQSPATLSLSPGERATLSCKASQNIDFDGYAYMNWYQHKPGQAPRVLIYSVFNLESGIPARFSGSGSGTDFTLTISSLEPEDFAVYYCQQSHEVPYTFGQGTKLEIK | 73
8 | hu31 (antibody, V domains shown, 1F5 HC-1/1F5 LC1-1) VH: QVQLVQSGAEVKKPGASVKVSCKASGYTFIDFNMHWVRQAPGQRLEWMGYIYPYNGDVVYNQNFTNRVTLTVDTSSSTAYMELSSLRSEDTAVYYCAREGLGGYWGQGTLVTVSS VL: EIVLTQSPATLSLSPGERATLSCKASQNIDFDGYAYMNWYQQKPGQAPRVLIYSVFNLESGIPARFSGSGSGTDFTLTISSLEPEDFAVYYCQQSHEVPYTFGQGTKLEIK | 79
9 | hu42 (antibody, V domains shown, 1F5 HC-2/1A2 LC2-3) VH: QVQLVQSGAEVKKPGASVKVSCKASGYTFTDFNMHWVRQAPGQRLEWMGYIYPYNGDVVYNQNFTNRVTLTVDTSSSTAYMELSSLRSEDTAVYYCAREGLGGYWGQGTLVTVSS VL: EIVLTQSPATLSLSPGERATLSCKASQNIDYDGYAYLNWYQQKPGQAPRVLIYSVFNLESGIPARFSGSGSGTDFTLTISSLEPEDFAVYYCQQSNEFPYTFGQGTKLEIK | 55
10 | hu44 (antibody, V domains shown, 1F5 HC-2/1F5 LC1-1) VH: QVQLVQSGAEVKKPGASVKVSCKASGYTFTDFNMHWVRQAPGQRLEWMGYIYPYNGDVVYNQNFTNRVTLTVDTSSSTAYMELSSLRSEDTAVYYCAREGLGGYWGQGTLVTVSS VL: EIVLTQSPATLSLSPGERATLSCKASQNIDFDGYAYMNWYQQKPGQAPRVLIYSVFNLESGIPARFSGSGSGTDFTLTISSLEPEDFAVYYCQQSHEVPYTFGQGTKLEIK | 99
11 | hu55 (antibody, V domains shown, 1F5 HC-3/1A2 LC2-3) VH: QVQLVQSGAEVKKPGASVKVSCKASGYTFTDFNMHWVRQAPGQGLEWMGYIYPYNGDVVYNQNFTNRVTLTVDTSSSTAYMELRSLRSDDTAVYYCAREGLGGYWGQGTLVTVSS VL: EIVLTQSPATLSLSPGERATLSCKASQNIDYDGYAYLNWYQQKPGQAPRVLIYSVFNLESGIPARFSGSGSGTDFTLTISSLEPEDFAVYYCQQSNEFPYTFGQGTKLEIK | 18
12 | hu57 (antibody, V domains shown, 1F5 HC-3/1F5 LC1-1) VH: QVQLVQSGAEVKKPGASVKVSCKASGYTFTDFNMHWVRQAPGQGLEWMGYIYPYNGDVVYNQNFTNRVTLTVDTSSSTAYMELRSLRSDDTAVYYCAREGLGGYWGQGTLVTVSS VL: EIVLTQSPATLSLSPGERATLSCKASQNIDFDGYAYMNWYQQKPGQAPRVLIYSVFNLESGIPARFSGSGSGTDFTLTISSLEPEDFAVYYCQQSHEVPYTFGQGTKLEIK | 78
13 | hu83 (antibody, V domains shown, 1F5 HC-5/1F5 LC1-1) VH: QVQLVQSGAEVKKPGASVKVSCKASGYTFIDFNMHWVRQAPGQRLEWMGYIYPYNADVVYNQDFTNRVTLTVDTSSSTAYMELSSLRSEDTAVYYCAREGLGGYWGQGTLVTVSS VL: EIVLTQSPATLSLSPGERATLSCKASQNIDFDGYAYMNWYQQKPGQAPRVLIYSVFNLESGIPARFSGSGSGTDFTLTISSLEPEDFAVYYCQQSHEVPYTFGQGTKLEIK | 102
14 | hu96 (antibody, V domains shown, 2A2 HC-1/1F5 LC1-1) VH: QVQLVQSGAEVKKPGASVKVSCKASGYTFTDYNMHWVRQAPGQRLEWMGYVYPYNGGSAYNQKFKSRVTLTVDTSSSTAYMELSSLRSEDTAVYYCAREGLGGYWGQGTLVTVSS VL: EIVLTQSPATLSLSPGERATLSCKASQNIDFDGYAYMNWYQQKPGQAPRVLIYSVFNLESGIPARFSGSGSGTDFTLTISSLEPEDFAVYYCQQSHEVPYTFGQGTKLEIK | 82
15 | hu97 (antibody, V domains shown, 2A2 HC-1/1F5 LC1-2) VH: QVQLVQSGAEVKKPGASVKVSCKASGYTFTDYNMHWVRQAPGQRLEWMGYVYPYNGGSAYNQKFKSRVTLTVDTSSSTAYMELSSLRSEDTAVYYCAREGLGGYWGQGTLVTVSS VL: EIVLTQSPATLSLSPGERATLSCKASQNIDFDGYAYMNWYQHKPGQAPRVLIYSVFNLESGIPARFSGSGSGTDFTLTISSLEPEDFAVYYCQQSHEVPYTFGQGTKLEIK | 82
16 | hu107 (antibody, V domains shown, 2B8 HC1-1/1A2 LC2-3) VH: QVQLVQSGAEVKKPGASVKVSCKASGYTFTDYNMHWVRQAPGQGLEWMGNIYPYNGGTVYNQKFNNRVTLTVDTSSSTAYMELSRLRSDDTAVYYCAREGLGGYWGQGTLVTVSS VL: EIVLTQSPATLSLSPGERATLSCKASQNIDYDGYAYLNWYQQKPGQAPRVLIYSVFNLESGIPARFSGSGSGTDFTLTISSLEPEDFAVYYCQQSNEFPYTFGQGTKLEIK | 73
